Experimental data: patent publication US20260191954A1, “COMPOSITIONS AND METHODS FOR NEOADJUVANT TREATMENT IN CANCER” (INNATE PHARMA, priority 2022, published 2026)
Several values for one entry are separate records, joined by “and”; a condition that tells them apart may be missing. Equal entries are not always repeated.

Tests used:
[1] = biological target: T1, recombinant human CD39 protein (huCD39) (Homo sapiens, UniProt P49961); assay: eATP release by H1703 (CD39-) cells incubated with recombinant huCD39, with or without IPH5201, then docetaxel; assay type: cell-based; conditions: H1703 cells + huCD39 400 ng/ml + docetaxel 0.1 μM; IPH5201 10 μg/mL; 40 h; FIG. 3A
T1 sequence (P49961 38-478 limits assumed): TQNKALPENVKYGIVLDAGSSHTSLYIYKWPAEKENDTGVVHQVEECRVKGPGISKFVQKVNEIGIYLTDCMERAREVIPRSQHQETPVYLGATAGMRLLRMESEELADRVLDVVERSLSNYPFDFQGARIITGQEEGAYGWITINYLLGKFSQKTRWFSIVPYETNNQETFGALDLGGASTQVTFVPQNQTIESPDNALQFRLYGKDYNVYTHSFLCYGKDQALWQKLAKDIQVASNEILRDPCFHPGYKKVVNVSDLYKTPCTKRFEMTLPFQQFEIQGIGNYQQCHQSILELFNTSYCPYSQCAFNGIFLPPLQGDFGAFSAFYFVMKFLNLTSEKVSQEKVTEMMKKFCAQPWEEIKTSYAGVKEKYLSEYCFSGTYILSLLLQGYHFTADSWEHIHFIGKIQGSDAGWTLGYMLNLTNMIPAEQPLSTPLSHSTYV
Experimental: H1703 (CD39−) cells were incubated with recombinant human CD39 protein (huCD39) (400 ng/ml) to mimic soluble CD39 in tumor microenvironment with or without IPH5201 (humanized anti-CD39 antibody having the respective heavy and light chain amino acid sequences of SEQ ID NOS: 10 and 11) at 10 μg/mL and then treated with docetaxel (0.1 μM). The measure of extracellular ATP (eATP) release was performed 40 h after docetaxel treatment.
OAW42 (CD39+) cells were incubated with 10 or 50 μg/mL of IPH5201 and treated with a dose range of docetaxel. The measure of eATP release was performed 30 h after docetaxel treatment. eATP was measured in the cell culture supernatant with a luminescent-based assay (CellTiter-Glo®) and expressed in Luminescence Arbitrary Unit (AU). Means+/−SD.

[2] = biological target: T2, free membrane CD39 (mCD39) on monocytes (Homo sapiens, UniProt P49961); assay: Indirect response PD model: IPH5201 concentration vs free mCD39 on monocytes, phase 1 patients; assay type: in vivo
T2 construct: endogenous in cells; host or cells: monocytes and B cells in patients' blood
T2 sequence (P49961 1-510): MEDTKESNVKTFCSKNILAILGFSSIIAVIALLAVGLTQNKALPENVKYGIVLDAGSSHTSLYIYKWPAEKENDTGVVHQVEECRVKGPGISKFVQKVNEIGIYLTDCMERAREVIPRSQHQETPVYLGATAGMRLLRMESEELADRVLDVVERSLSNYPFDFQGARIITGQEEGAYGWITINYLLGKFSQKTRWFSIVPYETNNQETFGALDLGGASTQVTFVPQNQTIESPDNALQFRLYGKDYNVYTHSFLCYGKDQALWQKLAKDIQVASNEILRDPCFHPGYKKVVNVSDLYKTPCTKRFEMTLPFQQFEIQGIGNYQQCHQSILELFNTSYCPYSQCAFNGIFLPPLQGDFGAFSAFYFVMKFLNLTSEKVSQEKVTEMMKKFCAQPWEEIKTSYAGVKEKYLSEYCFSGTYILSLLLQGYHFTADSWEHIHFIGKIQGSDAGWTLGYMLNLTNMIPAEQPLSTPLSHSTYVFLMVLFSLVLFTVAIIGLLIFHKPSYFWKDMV
Text: (§1) PK/PD modelling and simulation were used to guide selection of doses. IPH5201 PK data from 45 patients and PD data of free membrane CD39 (mCD39) occupancy on monocytes from 43 patients were available.
An indirect response PD model (inhibition on Kin) was then built to describe the relationship between IPH5201 concentrations and free mCD39 on monocytes (FIG. 10). The model accurately predicted CD39free+ of monocytes (%). […] The final indirect response model was then used for parametric simulation.

[3] = biological target: T3, membrane-bound CD39 on immune cells (Homo sapiens, UniProt P49961); assay: Free CD39 on monocytes and B cells in patient blood (flow cytometry); assay type: in vivo
T3 construct: To assess free CD39 on monocytes and B cells, blood samples are spiked with an antibody; endogenous in cells; host or cells: monocytes and B cells in patients' blood
T3 sequence (P49961 1-510): T2 sequence (P49961 1-510)
Experimental: CD39 occupancy by IPH5201 in samples from patients was determined by assessing free soluble CD39 and free membrane bound CD39.
To assess free CD39 on monocytes and B cells, blood samples are spiked with an antibody having the VH and VL of IPH5201 and a mouse Fc domain and labelled with a fluorochrome. A second non-competing anti-CD39 monoclonal antibody labelled with a distinct fluorochrome is used to bind to a site on CD39 distinct from the capture antibody. CD14, CD19 and CD45 are detected by incubation with anti-CD14, CD19 and CD45 monoclonal antibodies each labelled with a distinct fluorochrome. Binding is detected by flow cytometry.

[4] = Pharmacokinetics of IPH5201 in phase 1 patients; assay type: in vivo, human
Experimental: A first-in-human, multicentre, non-randomised, open-label, phase 1 study was conducted in order to assess the safety, efficacy, pharmacokinetics (PK) and pharmacodynamics (PD) of IPH5201±durvalumab (Imfinzi™) in patients with advanced solid tumours. The study consisted of two consecutive dose-escalation parts: • Part 1: Ascending doses of IPH5201 (100, 300, 1000 and 3000 mg) every 3 weeks (Q3W). • Part 2: Ascending doses of IPH5201 (300, 1000 and 3000 mg) and 1500 mg durvalumab Q3W.
as §1
On the left hand panel, curves from bottom to top represent 100 mg, 300 mg, 1000 mg and 3000 mg doses of IPH5201; on the right hand panel curves from bottom to top represent 300 mg, 1000 mg (up to the 21 day time point) and 3000 mg doses of IPH5201. The PK of IPH5201 was non-linear at ≤300 mg and linear at ≥1000 mg. Free soluble CD39 was above the lower limit of quantitation at cycle 1, day 2 or later in 6/40 patients (n=2, 100 mg; n=1, 1000 mg; n=3, 3000 mg).

[5] = biological target: T4, CD39 enzyme activity (Homo sapiens, UniProt P49961); assay: Tumoral CD39 enzyme activity in patient biopsies (Wachstein-Meisel assay); assay type: in vivo; conditions: for Significant overall decrease in CD39 enzymatic activity?: Day 15 vs screening biopsy
T4 construct: Tumour samples were obtained from patients with pancreatic cancer and assessed for CD39 enzyme activity; from tissue; host or cells: patients' tumour biopsies (tumour, stroma, vasculature), screening vs Day 15
T4 sequence (P49961 1-510): T2 sequence (P49961 1-510)

[6] = serum IPH5201, fixed doses Q3W, mono or with durvalumab, FIG. 12

B1: IPH5201: humanized anti-CD39 antibody having the respective heavy and light chain amino acid sequences of SEQ ID NOS: 10 and 11 (antibody)
heavy: QVQLVQSGAEVKKPGASVKVSCKASGYTFTDYNMHWVRQAPGQRLEWIGYIVPLNGGSTFNQKFKGRATITVDTSARTAYMELSSLRSEDTAVYYCARGGTRFAYWGQGTLVTVSSASTKGPSVFPLAPSSKSTSGGTAALGCLVKDYFPEPVTVSWNSGALTSGVHTFPAVLQSSGLYSLSSVVTVPSSSLGTQTYICNVNHKPSNTKVDKRVEPKSCDKTHTCPPCPAPEAEGAPSVFLFPPKPKDTLMISRTPEVTCVVVDVSHEDPEVKFNWYVDGVEVHNAKTKPREEQYNSTYRVVSVLTVLHQDWLNGKEYKCKVSNKALPSSIEKTISKAKGQPREPQVYTLPPSREEMTKNQVSLTCLVKGFYPSDIAVEWESNGQPENNYKTTPPVLDSDGSFFLYSKLTVDKSRWQQGNVFSCSVMHEALHNHYTQKSLSLSPGK
light: DIVMTQSPDSLAVSLGERATINCRASESVDNFGVSFMYWFQQKPGQPPKLLIYGASNQGSGVPDRFSGSGSGTDFTLTISSLQAEDVAVYYCQQTKEVPYTFGGGTKVEIKRTVAAPSVFIFPPSDEQLKSGTASVVCLLNNFYPREAKVQWKVDNALQSGNSQESVTEQDSKDSTYSLSSTLTLSKADYEKHKVYACEVTHQGLSSPVTKSFNRGEC
For B1, which “eATP release reduced by added huCD39” value [1] is on record?
Its value is “restored”.

And the Production rate constant ([2]; indirect response PD model (inhibition on Kin), model parameter)?
The Production rate constant was 20.5 h⁻¹.

And the “Maximum inhibition (IMAX) of CD39free+” value ([2]; indirect response PD model, monocytes)?
The value was 0.926 and 0.92.

What about the “free CD39 at C2D1, monocytes” value ([3]; 100 mg IPH5201 dose, cycle 2 day 1) of the same molecule?
Its value is “full rebound”.

And the “free CD39 at C2D1, monocytes” value ([3]; 300 mg IPH5201 dose, cycle 2 day 1)?
The value was “partial rebound”.

What about the “free CD39 at C2D1, B-cells” value ([3]; only the 100 mg IPH5201 dose, cycle 2 day 1) of the same molecule?
The value was “rebound”.

And the “dose at which IPH5201 saturated binding of membrane-bound CD39 on immune cells” value ([3]; patient samples, FIG. 11B)?
The value was 3000 mg.

What about the “population PK model best describing IPH5201 PK” value ([4]; PK data from 45 patients) of the same molecule?
Its value is 2-compartment model with parallel linear and saturatable kinetics.

What about the “dose range in which PK was linear” value [4, 6] of the same molecule?
Its value is no less than 1000 mg.

And the “dose range in which PK was non-linear” value [4, 6]?
Its value is no more than 300 mg.

And the “tumoral CD39 enzymatic activity” value ([5]; 3000 mg dose of IPH5201)?
The value was “showed a decrease in enzymatic activity”.

What about the “Significant overall decrease in CD39 enzymatic activity?” value (“Significant overall decrease” for short) ([5]; Patient 1, Cohort 1000 mg, NSCLC (squamous)) of the same molecule?
Its value is “No”.

And the “Significant overall decrease” value ([5]; Patient 3, Cohort 1000 mg, Pancreatic)?
The value was “Yes”.

What about the “Significant overall decrease” value ([5]; Patient 4, Cohort 3000 mg, Pancreatic) of the same molecule?
Its value is “Yes”.

What about the “Significant overall decrease” value ([5]; Patient 5, Cohort 3000 mg, Pancreatic) of the same molecule?
The value was “Yes”.

And the “Significant overall decrease” value ([5]; Patient 6, Cohort 3000 mg, Pancreatic)?
Its value is “Yes”.

And the “Significant overall decrease” value ([5]; Patient 7, Cohort 3000 mg, NSCLC (squamous))?
Its value is “Yes”.

What about the “patients in whom tumoral CD39 enzymatic activity decreased” value ([5]; patients with available samples) of the same molecule?
The value was 5/8.
